In a protein production outcome set (Wang et al. 2014):

Assay: label from the status in PepcDB records

Row | Sequence | protein production
1 | MLNDILTGYGIFILEILTILLLILAVVGLIISYRQHNKSKVGELEIKDLSEEFNEQVRLLRDFNLSEEEQKQRTKAEKKAEKQNAKKRKEKLKKGETLEDEKKACVYVLDFCGDISASETTALREEISAILNVAKSEDEVLLRLESPGGIVHNYGFAASQLSRLKQKGIKLTVAVDKVAASGGYMMACVADKIVSAPFAVIGSIGVVAQIPNVHRLLKKHDVDVDVMTAGEFKRTVTVLGENTEKGKQKFQQELEETHKLFKQFVSQNRPCLDIDKIATGEHWFGQQAIALQLVDEISTSDDLILEKMKEKQVLNVKYRLKKSLIKKFGRQAEESAINIIHRYSTKQSRDFMYLEHHHHHH | failed
2 | MLNDKMYHGKGLRKGDLRLYHELYNLQVMKWPVNPLDVIIEKIKRREGNGVIADIGCGEARIAREFENVISLDLHPVGKDVIPCDMRRRIPLDDGSVDVAVCCLSMMVEDIAVPTKEINRILRNGGHWYIAEVRSRIPSVGLLERKFESLGFDVEHVDVSNAQFVLFVLQK | failed
3 | MLNGDVTLRAWTNIWMFLIYGLAIFLEPIHNNIRHLPILVRGGIYSTLIIISEYITGSFLCFMLGTCPWHYSSGPFTIQGITRLDYFPYWLIAGLLFEKLHDALLKISINVEQSSS | failed
4 | MLNKFKKIVGVSVLVGCLGVLQAKNSLFVLPYEQKDALNSLVSGISNARESVKIAIYSFTHRDIARAIKSVASRGIKVQIIYDYESNHHNKQSTIGYLDKYPNTKVCLLKGLKAKNGNYYGIMHQKVAIIDDKIVFLGSANWSKNAFENNYEVLLKTDDTETILKAKSYYQKMLGSCVGF | failed
5 | MLNLFILLLERVGLIILIAYILMNINHFKTMMNEREKRRSQWQLIIIFGCFSMISNFTGIQIRGDEIINGTVYNHLDPDASLANTRVLTIGVSGLIGGPFVALAVAVISGMYRVYIGGADAYIYLISSIFIALISGYFGYKAMRANRYPTIVKGACIGGTTEIIQMLCILLFSDNTEHAWTLVKLIAIPMISINSIGTAIFLSIILSTIKQEEETRAIQTHDVLQLANQTLPYFRSGLNEQSAKKAAEIILNLMRVSAVAITNRKDILTHVGVASDHHVAQKAIITNLSKRAIQSGTLKEAYSSEEIGCNHPGCPLEAAIVVPLRVKNDVVGTLKLYFTNKYDVNYSDKQLATGLAEIFSSQLELGQAETQSALIRDAEIKSLQAQVNPHFFFNAINTISALIRIDSEKARELLLQLSQFFRSNLQGARNNTISLEKELQQVESYLSLEQARYPDRFNVSFDIDRTCYGALVPPFAIQILVENAIKHAFKNRKYNNEIIVKAHKAQTGLVISVSDNGHGIPYEKLDKIGKTSVHSESGTGSALENLNRRLDGLFGYEASLQIHSDHQGTQVSCTIPYHNLEEEKIESNHCR | failed
6 | MLPASNGSVSLPQPKEWENGCRLGFIHMAAKGIVQVISAQVLSGTTLTLGWLGYVPLLIWAVSRVRWVELFTDRRRQHLLFGTVFCLFALWLVRRDFDTGVSYHFIGMTAVTLLLDWPLAVLGGFMAQLGLLALGRQDLAALGVNGLMLIGLPVLITEVCAIVVERAQPRNLFVYIFCSGFFPAALTVLVCVPAALGVLWLDGRFALPEWLSDFVGYLWLMMFPEAFINGMVISALVVFCPEWLETFNRTRYLQAPWKEDER | failed
7 | MLPAYIRIHDQIKKEIDEGLWKIGDRLPSERDLAERFEVSRMTLRQAITLLVEEGILERRVGSGTYIASSRVQEKMRGTTSFTEIVKSQGKTPSTKLISYRRVHPSEQEIKFLDIKPKSYIIRMERVRYADDIPVVFEVTAIPEKIIKSFKKEAITKHFFKTLTDHGFVIGKSQQTISASNANEMTADYLAISRGHAVLTLAQVSYFENGMPFEYVRSQYVGERFEFYLENK | not failed
8 | MLPLEPYLTQTSAVPQMSHFMCHSPTHKPQGLLPWAPFHQASVSLYPISPWPSESVCPPTCPGGASCWFPAGNAWDRVELGFLGFGAGGVSIAVPGFPLSCGQGCCAGGWLGHGARFPAKLRAFPQVIRRGWLTINNISLMKGGSKEYWFVLTAESLSWYKDEEEKEKKYMLPLDNLKIRDVEKGFMSNKHVFAIFNTEQRNVYKDLRQIELACDSQEDVDSWKASFLRAGVYPEKDQAENEDGAQENTFSMDPQLERQVETIRNLVDSYVAIINKSIRDLMPKTIMHLMINNTKAFIHHELLAYLYSSADQSSLMEESADQAQRRDDMLRMYHALKEALNIIGDISTSTVSTPVPPPVDDTWLQSASSHSPTPQRRPVSSIHPPGRPPAVRGPTPGPPLIPVPVGAAASFSAPPIPSRPGPQSVFANSDLFPAPPQIPSRPVRIPPGIPPGVPRRPPAAPSRPTIIRPAEPSLLD | not failed
9 | MLQQLFASPILSVQTLHPSYEDHASDVFLVQTKDEEVIVRSSKMTEEPNNDFWWGCKNLFGIDPRNVHHLEYIHELLKKHTNLPIPTILQKHVLNGRKYVSVEKLTGSTLQSFVGQSDSILFSLGKGLAEIHSFQAEFIGNPSGTFQVPLEEFKSHILKVSKELVNRFYSDNTSIRNAFSTFESQLSSLPTPKEATLVLIDMDPTQFLSDGTTITGLVDTEAYAVAPRELDFISLEYVFTEKEAHAFKQGYETIMPIPNLVECRHPYRYLYRLLSIQGSVELEKWLSHPSYF | failed
10 | MLQRTLSSIQIIGGVTQALFILSICLASINPPTEFTMRRTMAMSMRKYSSHSTPRMARIPTTFVVIVLRPTILSGSVGPVITLYIAIKAVPRSTQTPATKTFS | failed
11 | MLQSHIMAGNCTVKPARMTRAPYARHELKSTNSGCDESPAALERRVAELLLVADFGAVVGSILDPRQVCEVASSWLGETLGWQMLSVCCHDFSTGTMRGGAGRGRHLSKKRQEGATSTVFIAAAQKGLSDAADVRTIPFPDGSGTLSLSRQSLAESQYSDEFFGGVVENLARSLAAARECDRLKNLSMRDHLTGLYNRRVFEAMLEVEARKRTTKPFSLLLIDLDDFKRVNDTYGHGAGDQVLVAVAKMLRLSFRKSDVVSRYGGEEFGVLLPDTSQDSARVVAERFRQNVATLSLPVNKEKIMPTVSVGIASVTLRLGIEVADVIEEADRALYQAKVTGKNRVCSSLLGENS | failed
12 | MLQYILAEHPFFVATGALYAAAAGFYAAAWRSTRALVGRAATALLCAALAFNAGLIVERWIEAGRAPFKSLFESLVFFAFTTGVVYLAFERLYRTRVFGALAALLTLALLGYALGKWDAEIVKLPPALQSAWFVPHVVVYFVGYAAVSLAALLAAVQLLAPRVPLLQRLTTLRAGTILTGKALDLEQMTYELIRFGFVLLTVGLLVGSVWAKSAWGDFWVWDPKENWSLVTWLVYGAYLHLRKVRGWRGDRAAWLVLLGFAVVMFTYLGMSMLPTAEESAHVYTG | failed
13 | MLRAIYRALWWLVAPLAVLRLVWRSRKERGYREHIGERFGFGPGRALARRIDEATPVVWVHAVSVGETRAAQPLVDALLRARPDVHVLLTHMTPSGRATGEQIFGERVSRCYLPYDLPHAVRRFLRAWRPSLGLVMETEVWPTLIDECRRADVPLVLTNARMSARSFGRAAKFGAAAREVFGGFSRVLAQSPADAERLTALGARNVAVLGNLKFDMTTPPELAARGRAWRAAIGERPVWVAASTRDGEEALVLDAFAALRTPDALLILVPRHPQRFAEVAALVERRGLRHARRTEWAADAAAAAAGGPAAPALPPDVAVLLGDSMGELGAYYAAADVAFIGGSLLPLGGQNLIEACAVGVPVLIGPHVFNFTQATADAVTAGACAQVQDPADLARTLDALFADHARRAAMGAAGAAFAARHRGATARTVDVLNALLPPPRVASSANDEGEAGGLDAGTAID | failed
14 | MLREAEVVVLGAGVAGLTLARLLWERGRKVLVVAEALGEASRPPVALVNPLRGRRFTLAEEGERALAAALAFYGRFVPLHLGVFRPVPEEDRPKVAGRLSRLKHRWEKEGVLLEEAFWLEPRPLLARLAEGLPLLRGRVLAWEPPWLVLEGGGRVRGEVLVYAGGGRGAHLLGLEGRHVPGLVLTLLDYFPRAVSYRVYLAGAALGGSYLPGEEGYRLPPPTEGEVEWLLQGAEALVGYRPRVASLWRGVRFRLSSFLFPVEGGFALTGFGSTGFLYAPLLAERLAERLLEHHHHHH | failed
15 | MLRGCGKLKKNLPCSVHTETPIVLKTTARFLLGLSLVLLSSSVATAQVVLPRTLELNAKEMEQNGFVVAQEALQLAQFQQFEDALVRAKLAVQLAPRAHEIWALLGGLYLTVNQPKDAVPALEQSLKLNDKNPGAYFNLGSAHFRLGRYDAAARAIEQGLALKPNATEEWFNLGNAYLKLGQKDRAIEQYRRSLRLDRRFWPAYTNIGLVLYEQGHIRQAVKNWEQAADIDPKASEPKLALATALLQLGNEARALQLAEEALRLDSRYGTVEFQRENLWGDRLVADTQILLAKPPLRALMSQLQPEQSALPQP | failed
16 | MLRIFIPTSNGKISRRRYIFSFILINFIFAFLIIFFNDGEAGFLVIVSTIVLHYLVINMNCQRLRDSGFIYIKTYVFGTLAVYIISIITMIAEDFACSGNGSMIFLICYFSTFSMLMLAPTDSSKQ | failed
17 | MLRLYKTIGRFNLINFQEDYPMKILVVGTGAREHAICSALADEATIYSVMGNRNPGISRLAGNSLLLLKLTPKVVRFASEKGVDMAFIGPEAHLEAGLVDALEEAGIPSVGPTRDAARIETDKSFMRKLFEDYRIPGSITYRVFSDPEELREFMEDFDSEAVVKPVGLTGGKGVKIVGEHLRDNMEALKYATEVIEKRIGGHPSVVIEERVVGEEFTVQAFSDGEHIVPMPAVQDHPHAYEGDQGPITGGMGSYSDSDGLLPFLTQKDYEDAVEIMQRTVDAIRKETGPYRGILYGQFMLSADGPKLIEYNARFGDPEAMNVLPLLESSMLEICEGIVDGNLKSASFMNLATVCKYLVPEGYPESGVAGAEIKVDEKKIEDMGVITYYAAVNQEDDHIYTSSSRALALVAPADDIYSAEELCEEATAHVKGRLYHRRDIGTRELVEKRIKHMEDLRS | failed
18 | MLRNIIRFKGFGKGTSGGFLKPVSFRVQLTRCYRYDNGPSYRRFNNGEYSQKSSFKSILLDKSSRKYLALLFGGCSLFYYTHLDKAPVSDRSRFIWVSRPLELTIGNYTYKSIWRQTQQEILPPQHPLSIKIENIFMKIVEAAYKDPSVDNSLLDGIKWEIHVVNDPTASPNAFVLPGGKVFIFSSILPICANDDGIATVLAHEFAHQLARHTAENLSKAPIYSLLGLVLYTVTGAHAINNILLDGFLRMPASRQMETEADYIGLMIMSRACFQPQESIKVWERMANFEKQMNRGGVVNMEFLSTHPASTRRIENMSKWLPKANEIYEQSDCSSMGNYYKSFFSM | failed
19 | MLRPRTIKEGSVGLFALLGLFIIGGIVLWLRGGAFGNPGYEVLVQFDDASGLQVGGAVRYRGVPVGRVAKLIPGSNGILAQLEISSTQLRIPADVQVEISRYGLLGEAAIDMIPDRQLSEAALAIDPLSADCAESDKILCDGDELEGQAGTQLTNSMARLAQAYSEPEFVADINATVKSANLAAARIAAMSAEITALSKTANQQVRGFERTSEAIAKAADNASLLTSRVDQVVQTNQGYINRTIEEASLLMVNLNQLVGENRAQFNLTLKSIETTNRDLQAIGQEIQTAVGTINHGLAAIDTQKVTNDLALLMENAAVTSNNIRQISNDLNDPTLMLTLQQTLDAARLTFENAQKITSDVEQLTGDPAFRNNLRKLVDGLGQLVSSTENLQDRVYTAHTLERSGQQLRFQLDHQQQLALYYEQWGVINPVPASGSPSPQIQTPKIKPPQPKENQGK | failed
20 | MLRPSVSLAFASSLPQQSVASRAVQRSPLPRRASGHGATEARGMPSHCFIRFCCIVLLAITGCSPAAQSRYAPERNFSDPKALALALAAEQGDAEEVRRLMKVEGVNPDTIFSKDGYPLLFWPIFTHSPAGLKAMLDNGADPNVALPYQTLDRGVRNNPNAMVWAAEQDDPIYLKMLLDHGGNPNTRNANNESLLFHAFIKQNKWDNIKLLVERGADINAVAGMGNSITAAYAIRGGFDFVYWLLQHGADPTIEFAYGNPVHLKDSGIIEAIFWHPGNPKDPQWQRQCQQWLLKRGYERPPLPENYRSMRKAFHFPSEEKEIPLL | failed
